Data published in patent publication US20260125469A1 (Hoffmann-La Roche, published 2026).
Substitutions are numbered along the chain they refer to. In names and notes the source's numbering stands. Like-named read-outs stand apart in the source and are kept apart here. Blank lines part the entries; values can stand above or below the binder they belong to.

What was measured:
[1] = target: T1, human CD3 on cells (CD3ε) (human, UniProt P07766 23-207); assay: cell-based or functional assay
[2] = target: T2, Human CD3ε stalk-Fc(knob)-Avi/CD3δ stalk-Fc(hole) (human); assay: SPR on immobilized human CD3ε/δ after stress, relative to sample kept at -80°C pH 6
T2 construct: Heterodimer of CD3 delta and CD3 epsilon ectodomains fused to human Fc with knob-into-hole; also called human CD3ε/δ; CD3 antigen
Method: (§1) In order to assess the effect of the deamidation site removal and its effect on the stability of the antibodies, the optimized anti-CD3 antibodies (in TCB format) were incubated for 14 days at 37° C., pH 7.4 and at 40° C., pH 6 and further analyzed by SPR for their binding capability to human CD3ε/δ. Samples stored at −80° C. pH 6 were used as reference. The reference samples and the samples stressed at 40° C. were in 20 mM His, 140 mM NaCl, pH 6.0, and the samples stressed at 37° C. in PBS, pH 7.4, all at a concentration of 1.0 mg/ml. After the stress period (14 days) samples in PBS were dialyzed back to 20 mM His, 140 mM NaCl, pH 6.0 for further analysis.
(§2) All SPR experiments were performed on a Biacore T200 instrument (GE Healthcare) at 25° C. with HBS-P+ (10 mM HEPES, 150 mM NaCl pH 7.4, 0.05% Surfactant P20) as running and dilution buffer. Biotinylated human CD3ε/δ (see Example 3, SEQ ID NOs 41 and 42) as well as biotinylated anti-huIgG (Capture Select, Thermo Scientific, #7103262100) were immobilized on a Series S Sensor Chip SA (GE Healthcare, #29104992), resulting in surface densities of at least 1000 resonance units (RU). Anti-CD3 antibodies with a concentration of 2 μg/ml were injected for 30 s at a flow rate of 5 μl/min, and dissociation was monitored for 120 s. The surface was regenerated by injecting 10 mM glycine pH 1.5 for 60 s. Bulk refractive index differences were corrected by subtracting blank injections and by subtracting the response obtained from a blank control flow cell. For evaluation, the binding response 5 seconds after injection end was taken. To normalize the binding signal, the CD3 binding was divided by the anti-huIgG response (the signal (RU) obtained upon capture of the CD3 antibody on the immobilized anti-huIgG antibody). The relative binding activity was calculated by referencing each temperature stressed sample to the corresponding, non-stressed sample.
The experiment was performed as described in Example 4, using the TCB molecules prepared in Example 7.

[3] = target: T2, Human CD3ε stalk-Fc(knob)-Avi/CD3δ …; assay: SPR, TCB captured by anti-PG antibody, antigen as analyte, 25°C
[4] = target: T2, Human CD3ε stalk-Fc(knob)-Avi/CD3δ …; assay: as above; remark: listed apart in the source
Text: (§3) For affinity measurements, TCB molecules were captured on a C1 sensorchip (GE Healthcare) surface with immobilized anti-Fc(P329G) IgG (an antibody that specifically binds human IgG₁ Fc(P329G); “anti-PG antibody”—see WO 2017/072210, incorporated herein by reference). The experimental setup is schematically depicted in FIG. 3. Capture IgG was coupled to the sensorchip surface by direct immobilization of around 400 resonance units (RU) using the standard amine coupling kit (GE Healthcare Life Sciences).
(§4) Kinetic constants were derived using the Biacore T200 Evaluation Software (GE Healthcare Life Sciences), to fit rate equations for 1:1 Langmuir binding by numerical integration. The half-life (t_{1/2}) of the interaction was calculated using the formula t_{1/2}=ln2/koff.
(§5) To analyze the interaction to CD3, TCB molecules were captured for 240 s at 25 nM with a flow rate of 10 μl/min. Human and cynomolgus CD3F stalk-Fc(knob)-Avi/CD36-stalk-Fc(hole) were passed at a concentration of 0.14-100 nM with a flow rate of […] through the flow cells for 240 s. The dissociation was monitored for 800 s.

[5] = target: T3, Cynomolgus CD3ε stalk-Fc(knob)-Avi/CD3δ stalk-Fc(hole) (cynomolgus); assay: as above
T3 construct: also called cynomolgus CD3ε/δ
Text: as §3, §4, §5

[6] = target: T2, Human CD3ε stalk-Fc(knob)-Avi/CD3δ …; assay: as above; remark: listed apart in the source
Text: as §3
(§6) To analyze the interaction to CD3, TCB molecules were captured for 80 s at 25 nM with a flow rate of 10 μl/min. […] The dissociation was monitored for 800 s.
as §4

[7] = target: T3, Cynomolgus CD3ε stalk-Fc(knob)-Avi/CD3δ …; assay: as above; remark: listed apart in the source
Text: as §3, §6, §4

[8] = target: T2, Human CD3ε stalk-Fc(knob)-Avi/CD3δ …; assay: SPR on immobilized human CD3ε/δ after stress, relative to sample kept at -80°C pH 6; remark: listed apart in the source
Method: as §1, §2

[9] = target: T1, human CD3 on cells (CD3ε); assay: cell-based or functional assay; remark: listed apart in the source
[10] = target: T4, human GPRC5D on stably transduced CHO-K1 cells (human, UniProt Q9NZD1 1-345); assay: flow cytometry on CHO-K1 cells stably transduced with human GPRC5D, performed as in Example 11
T4 construct: whole, on cells; also called CHO-hGPRC5D cells
T4 sequence (Q9NZD1 whole entry): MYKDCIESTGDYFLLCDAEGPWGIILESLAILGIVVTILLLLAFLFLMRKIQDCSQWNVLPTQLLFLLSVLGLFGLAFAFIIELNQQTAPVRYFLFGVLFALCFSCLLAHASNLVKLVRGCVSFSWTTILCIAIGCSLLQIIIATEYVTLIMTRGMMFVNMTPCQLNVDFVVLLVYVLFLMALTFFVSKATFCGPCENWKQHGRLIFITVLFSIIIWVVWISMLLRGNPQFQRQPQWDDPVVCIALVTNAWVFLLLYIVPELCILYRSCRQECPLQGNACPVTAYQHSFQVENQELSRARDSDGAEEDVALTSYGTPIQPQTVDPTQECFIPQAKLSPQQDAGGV
Method: The binding of the CEACAM5-TCB molecules prepared in Example 7 was tested on CEACAM5 (CEA)-positive tumor cells (LS-180 cells, ECACC #87021202) and CD3-expressing immortalized T lymphocyte cells (GloResponse Jurkat NFAT-RE-luc2P; Promega, #CS176501). Briefly, adherent LS-180 cells were detached, using Cell Dissociation Buffer (Gibco), counted, checked for viability and re-suspended at 2 million cells per ml in FACS buffer (PBS with 0.1% BSA). Likewise, Jurkat suspension cells were harvested and plated for subsequent stainings. 100 μl of the cell suspension (containing 0.2 million cells) were incubated in round-bottom 96-well plates for 30 min at 4° C. with increasing concentrations of the CEACAM5-TCB molecules (4 pM-300 nM). Cells were washed twice with cold PBS 0.1% BSA (FACS buffer), re-incubated for further 30 min at 4° C. with the Alexa Fluor 647-conjugated AffiniPure F(ab′)2 Fragment Goat Anti-Human IgG, Fcγ Fragment Specific Antibody (Jackson Immuno Research Lab #109-606-008, diluted 1:50 in FACS buffer) and washed twice with cold PBS 0.1% BSA thereafter. The staining was fixed for 20 min at 4° C. in the dark, using 150 μl of 2% PFA in FACS buffer per well. Fluorescence was analyzed by FACS using a FACS Fortessa (Software FACS Diva). Binding curves were obtained using GraphPadPrism6.
The binding of the GPRC5D-TCB molecules prepared in Example 7 was tested using CHO-transfectants stably transduced to express human GPRC5D (CHO-K1, ATCC) and CD3-expressing immortalized T lymphocyte cells (GloResponse Jurkat NFAT-RE-luc2P; Promega, #CS176501). The experiment was performed as described in Example 11.

T1 sequence (P07766 23-207 limits assumed): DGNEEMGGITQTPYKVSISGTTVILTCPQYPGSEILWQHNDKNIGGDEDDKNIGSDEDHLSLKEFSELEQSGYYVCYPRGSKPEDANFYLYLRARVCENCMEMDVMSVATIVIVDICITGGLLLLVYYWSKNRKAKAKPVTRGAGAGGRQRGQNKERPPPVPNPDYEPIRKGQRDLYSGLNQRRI

EC50 24 h (pM), T-cell mediated lysis of CEACAM5-expressing LS180 tumor cells [1]: 58 pM
EC50 48 h (pM), T-cell mediated lysis of CEACAM5-expressing LS180 tumor cells [1]: 36.1 pM
binding activity [%] after 2 weeks at pH 6.0/40°C [2]: 101%
binding activity [%] after 2 weeks at pH 7.4/37°C [2]: 99%
fold higher binding half-life than CD3orig [3]: > 3 fold
Kd [4]: 0.562 nM
koff [4]: 0.000886 s⁻¹
kon [4]: 1.59e+06 M⁻¹ s⁻¹
t1/2 [4]: 13 min
Kd [5]: 0.324 nM
koff [5]: 0.000675 s⁻¹
kon [5]: 2.08e+06 M⁻¹ s⁻¹
t1/2 [5]: 17.1 min
B1: CEACAM5-TCB, CEACAM5 CD3 variant P033.078 (bispecific antibody, human IgG1, kappa, L234A L235A)
heavy 1: not shown
heavy 2: QVQLVQSGAEVKKPGSSVKVSCKASGFNIKDTYMHWVRQAPGQGLEWMGRIDPANGNSKYVPKFQGRVTITADTSTSTAYMELSSLRSEDTAVYYCAPFGYYVSDYAMAYWGQGTLVTVSSASTKGPSVFPLAPSSKSTSGGTAALGCLVEDYFPEPVTVSWNSGALTSGVHTFPAVLQSSGLYSLSSVVTVPSSSLGTQTYICNVNHKPSNTKVDEKVEPKSCDKTHTCPPCPAPEAAGGPSVFLFPPKPKDTLMISRTPEVTCVVVDVSHEDPEVKFNWYVDGVEVHNAKTKPREEQYNSTYRVVSVLTVLHQDWLNGKEYKCKVSNKALGAPIEKTISKAKGQPREPQVCTLPPSRDELTKNQVSLSCAVKGFYPSDIAVEWESNGQPENNYKTTPPVLDSDGSFFLVSKLTVDKSRWQQGNVFSCSVMHEALHNHYTQKSLSLSP
light 1: EIVLTQSPATLSLSPGERATLSCRAGESVDIFGVGFLHWYQQKPGQAPRLLIYRASNRATGIPARFSGSGSGTDFTLTISSLEPEDFAVYYCQQTNEDPYTFGQGTKLEIKRTVAAPSVFIFPPSDRKLKSGTASVVCLLNNFYPREAKVQWKVDNALQSGNSQESVTEQDSKDSTYSLSSTLTLSKADYEKHKVYACEVTHQGLSSPVTKSFNRGEC
light 2: EVQLLESGGGLVQPGGSLRLSCAASGFTFESYAMNWVRQAPGKGLEWVSRIRSKYNEYATYYADSVKGRFTISRDDSKNTLYLQMNSLRAEDTAVYYCVRASNFPSSFVSYFGYWGQGTLVTVSSASVAAPSVFIFPPSDEQLKSGTASVVCLLNNFYPREAKVQWKVDNALQSGNSQESVTEQDSKDSTYSLSSTLTLSKADYEKHKVYACEVTHQGLSSPVTKSFNRGEC
notes: 2+1 IgG CrossFab, inverted; human IgG1 Fc, knob-into-hole, PGLALA; also called P033.078 in CEACAM5-TCB format

Kd [6]: 0.6 nM
koff [6]: 0.000996 s⁻¹
kon [6]: 1.66e+06 M⁻¹ s⁻¹
t1/2 [6]: 11.6 min
Kd [7]: 0.37 nM
koff [7]: 0.000802 s⁻¹
kon [7]: 2.2e+06 M⁻¹ s⁻¹
t1/2 [7]: 14.4 min
fold higher binding half-life than CD3orig [3]: ≤ 6 fold
binding activity [%] after 2 weeks at pH 6.0/40°C [8]: 99%
binding activity [%] after 2 weeks at pH 7.4/37°C [8]: 99%
B2: TYRP1-TCB with anti-CD3 antibody clone P033.078 (bispecific antibody, human IgG1, kappa, L234A L235A)
heavy 1: not shown
heavy 2: QVQLVQSGAEVKKPGASVKVSCKASGFNIKDYFLHWVRQAPGQGLEWMGWINPDNGNTVYAQKFQGRVTMTADTSTSTVYMELSSLRSEDTAVYYCTRRDYTYEKAALDYWGQGTLVTVSSASTKGPSVFPLAPSSKSTSGGTAALGCLVEDYFPEPVTVSWNSGALTSGVHTFPAVLQSSGLYSLSSVVTVPSSSLGTQTYICNVNHKPSNTKVDEKVEPKSCDKTHTCPPCPAPEAAGGPSVFLFPPKPKDTLMISRTPEVTCVVVDVSHEDPEVKFNWYVDGVEVHNAKTKPREEQYNSTYRVVSVLTVLHQDWLNGKEYKCKVSNKALGAPIEKTISKAKGQPREPQVCTLPPSRDELTKNQVSLSCAVKGFYPSDIAVEWESNGQPENNYKTTPPVLDSDGSFFLVSKLTVDKSRWQQGNVFSCSVMHEALHNHYTQKSLSLSP
light 1: DIQMTQSPSSLSASVGDRVTITCRASGNIYNYLAWYQQKPGKVPKLLIYDAKTLADGVPSRFSGSGSGTDFTLTISSLQPEDVATYYCQHFWSLPFTFGQGTKLEIKRTVAAPSVFIFPPSDRKLKSGTASVVCLLNNFYPREAKVQWKVDNALQSGNSQESVTEQDSKDSTYSLSSTLTLSKADYEKHKVYACEVTHQGLSSPVTKSFNRGEC
light 2: B1 light 2
notes: human IgG1 Fc, knob-into-hole, P329G L234A L235A; also called P033.078 in TCB format

EC50 20 h (pM), T-cell mediated lysis of GPRC5D-expressing NCI-H929 cells [9]: 0.31 pM
binding activity [%] after 2 weeks at pH 6.0/40°C [2]: 100%
binding activity [%] after 2 weeks at pH 7.4/37°C [2]: 97%
binding result [10]: binds
Kd [4]: 0.377 nM
koff [4]: 0.0013 s⁻¹
kon [4]: 3.46e+06 M⁻¹ s⁻¹
t1/2 [4]: 8.89 min
Kd [5]: 0.241 nM
koff [5]: 0.000866 s⁻¹
kon [5]: 3.61e+06 M⁻¹ s⁻¹
t1/2 [5]: 13.3 min
B3: GPRC5D-TCB, GPRC5D CD3 variant P035.093 (bispecific antibody, human IgG1, kappa, L234A L235A)
heavy 1: not shown
heavy 2: EVQLVESGGGVVQPGRSLRLSCAASGFSFSNYGMAWVRQAPGKGLEWVASISTGGGNTYYRDSVKGRFTISRDNAKNTLYLQMNSLRAEDTAVYYCTRHDRGGLYWGQGTMVTVSSASTKGPSVFPLAPSSKSTSGGTAALGCLVEDYFPEPVTVSWNSGALTSGVHTFPAVLQSSGLYSLSSVVTVPSSSLGTQTYICNVNHKPSNTKVDEKVEPKSCDKTHTCPPCPAPEAAGGPSVFLFPPKPKDTLMISRTPEVTCVVVDVSHEDPEVKFNWYVDGVEVHNAKTKPREEQYNSTYRVVSVLTVLHQDWLNGKEYKCKVSNKALGAPIEKTISKAKGQPREPQVCTLPPSRDELTKNQVSLSCAVKGFYPSDIAVEWESNGQPENNYKTTPPVLDSDGSFFLVSKLTVDKSRWQQGNVFSCSVMHEALHNHYTQKSLSLSP
light 1: DIVMTQSPLSLPVTPGEPASISCRSSKSLLHSNGITYVYWYLQKPGQSPQLLIYRMSNRASGVPDRFSGSGSGTDFTLKISRVEAEDVGVYHCGQLLENPYTFGQGTKLEIKRTVAAPSVFIFPPSDRKLKSGTASVVCLLNNFYPREAKVQWKVDNALQSGNSQESVTEQDSKDSTYSLSSTLTLSKADYEKHKVYACEVTHQGLSSPVTKSFNRGEC
light 2: B1 light 2 with E30S, E57N, S106A, F108Y, G113A
notes: 2+1 IgG CrossFab, inverted; human IgG1 Fc, knob-into-hole, PGLALA; also called P035.093 in GPRC5D-TCB format
